Measurements reported in the Immune Epitope Database (IEDB).
One block for each sequence: values may come before it.

What was measured:
HLA-A*02:01 [1] = experiment: IEDB peptide-MHC binding, purified MHC/competitive/radioactivity; ≥ and ≤ were set here for values at or beyond the usual limits of such assays
HLA-A*69:01 = experiment: IEDB peptide-MHC binding, purified MHC/direct/fluorescence; filed as Kd, often an IC50 or EC50 that approximates it; ≥ and ≤ were set here for values at or beyond the usual limits of such assays
HLA-B*58:01 = experiment: as above
HLA-B*07:02 [2] = experiment: as above
HLA-B*46:01 = experiment: as above; conditions: source organism: Influenza A virus (A/chicken/Hubei/wm/1997(H5N1))
HLA-B*18:01 = experiment: as above
HLA-B*27:05 = experiment: as above
HLA-B*15:01 [3] = experiment: as above
HLA-A*03:01 [4] = experiment: as above
HLA-B*57:01 = experiment: as above; conditions: source organism: Influenza A virus (A/chicken/Hubei/wm/1997(H5N1))
HLA-A*31:01 = experiment: as above
HLA-A*01:01 [5] = experiment: as above
HLA-A*02:01 [6] = experiment: as above
HLA-A*11:01 [7] = experiment: as above
HLA-B*40:01 = experiment: as above
HLA-B*15:17 = experiment: as above; conditions: source organism: Influenza A virus (A/chicken/Hubei/wm/1997(H5N1))
HLA-B*48:01 = experiment: as above; conditions: source organism: Influenza A virus (A/chicken/Hubei/wm/1997(H5N1))
HLA-A*26:02 = experiment: as above
HLA-A*26:01 = experiment: as above
HLA-A*30:01 [8] = experiment: IEDB peptide-MHC binding, purified MHC/competitive/fluorescence; filed as Kd, often an IC50 or EC50 that approximates it; ≥ and ≤ were set here for values at or beyond the usual limits of such assays; conditions: source organism: Influenza A virus (A/X-31(H3N2))
HLA-C*12:03 = experiment: IEDB peptide-MHC binding, purified MHC/direct/fluorescence; filed as Kd, often an IC50 or EC50 that approximates it; ≥ and ≤ were set here for values at or beyond the usual limits of such assays
HLA-A*02:01 [9] = experiment: IEDB peptide-MHC binding, purified MHC/competitive/fluorescence; filed as Kd, often an IC50 or EC50 that approximates it; ≥ and ≤ were set here for values at or beyond the usual limits of such assays
HLA-B*15:01 [10] = experiment: IEDB peptide-MHC binding, purified MHC/competitive/radioactivity; filed as Kd, often an IC50 or EC50 that approximates it; ≥ and ≤ were set here for values at or beyond the usual limits of such assays; conditions: source organism: Vaccinia virus WR
HLA-A*30:01 [11] = experiment: as above; conditions: source organism: Vaccinia virus WR
HLA-A*32:01 = experiment: as above; conditions: source organism: Vaccinia virus WR
HLA-B*15:03 = experiment: as above; conditions: source organism: Vaccinia virus WR
HLA-B*08:01 [12] = experiment: as above; conditions: source organism: Vaccinia virus WR
HLA-A*01:01 [13] = experiment: IEDB peptide-MHC binding, purified MHC/competitive/fluorescence; ≥ and ≤ were set here for values at or beyond the usual limits of such assays
HLA-A*02:01 [14] = experiment: as above
HLA-A*11:01 [15] = experiment: as above
HLA-B*44:02 = experiment: IEDB peptide-MHC binding, purified MHC/direct/fluorescence; filed as Kd, often an IC50 or EC50 that approximates it; ≥ and ≤ were set here for values at or beyond the usual limits of such assays
HLA-A*24:02 = experiment: as above
HLA-A*02:06 = experiment: IEDB peptide-MHC binding, purified MHC/competitive/radioactivity; filed as Kd, often an IC50 or EC50 that approximates it; ≥ and ≤ were set here for values at or beyond the usual limits of such assays; conditions: source organism: Trypanosoma cruzi
HLA-A*02:02 = experiment: as above; conditions: source organism: Trypanosoma cruzi
HLA-A*02:03 = experiment: as above; conditions: source organism: Trypanosoma cruzi
HLA-A*68:02 = experiment: as above; conditions: source organism: Trypanosoma cruzi
HLA-B*15:01 [16] = experiment: IEDB peptide-MHC binding, purified MHC/competitive/fluorescence; ≥ and ≤ were set here for values at or beyond the usual limits of such assays
HLA-A*03:01 [17] = experiment: as above; conditions: source organism: Variola virus
HLA-B*07:02 [18] = experiment: IEDB peptide-MHC binding, purified MHC/competitive/fluorescence; filed as Kd, often an IC50 or EC50 that approximates it; ≥ and ≤ were set here for values at or beyond the usual limits of such assays; conditions: source organism: Yersinia mollaretii ATCC 43969
HLA-B*51:01 = experiment: as above; conditions: source organism: Yersinia mollaretii ATCC 43969
HLA-B*08:01 [19] = experiment: as above; conditions: source organism: Yersinia mollaretii ATCC 43969
HLA-C*15:02 = experiment: IEDB peptide-MHC binding, purified MHC/direct/fluorescence; filed as Kd, often an IC50 or EC50 that approximates it; ≥ and ≤ were set here for values at or beyond the usual limits of such assays; conditions: source organism: Canarypox virus
HLA-C*03:03 = experiment: as above; conditions: source organism: Canarypox virus
HLA-A*02:11 = experiment: IEDB peptide-MHC binding, purified MHC/competitive/fluorescence; filed as Kd, often an IC50 or EC50 that approximates it; ≥ and ≤ were set here for values at or beyond the usual limits of such assays; conditions: source organism: Canarypox virus
[20] = source organism: Influenza A virus (A/chicken/Hubei/wm/1997(H5N1))
[21] = source organism: Zaire ebolavirus
[22] = source organism: Vaccinia virus WR
[23] = source organism: Cryptosporidium parvum
[24] = source organism: Influenza A virus (A/Hong Kong/485/1997(H5N1))
[25] = source organism: Influenza A virus (A/Puerto Rico/8/34/Mount Sinai(H1N1))
[26] = source organism: Canarypox virus

IC50 (HLA-A*02:01 [1]; source organism: Homo sapiens): 1420 nM
Sequence: CQWGRLWQL

Sequence: EKPKFLPDL
Kd (HLA-A*69:01; [20]): ≥ 20 µM
Kd (HLA-B*58:01; [20]): ≥ 20 µM
Kd (HLA-B*07:02 [2]; [20]): ≥ 20 µM
Kd (HLA-B*46:01): ≥ 20 µM
Kd (HLA-B*18:01; [20]): ≥ 20 µM
Kd (HLA-B*27:05; [20]): ≥ 20 µM
Kd (HLA-B*15:01 [3]; [20]): ≥ 20 µM
Kd (HLA-A*03:01 [4]; [20]): ≥ 20 µM
Kd (HLA-B*57:01): ≥ 20 µM
Kd (HLA-A*31:01; [20]): ≥ 20 µM
Kd (HLA-A*01:01 [5]; [20]): ≥ 20 µM
Kd (HLA-A*02:01 [6]; [20]): ≥ 20 µM
Kd (HLA-A*11:01 [7]; [20]): ≥ 20 µM
Kd (HLA-B*40:01; [20]): ≥ 20 µM
Kd (HLA-B*15:17): ≥ 20 µM
Kd (HLA-B*48:01): ≥ 20 µM
Kd (HLA-A*26:02; source organism: Influenza A virus (A/Taiwan/2/2006(H1N1))): ≥ 20000 nM
Kd (HLA-A*26:01; [20]): ≥ 20000 nM
Kd (HLA-A*30:01 [8]): ≥ 20 µM

Sequence: ETVEWALKF
Kd (HLA-A*26:02; source organism: Kurkino virus): ≤ 1 nM
Kd (HLA-A*26:01; source organism: Orthohantavirus dobravaense): 3.2 nM

Sequence: FCIKVLCPY
Kd (HLA-A*26:02; source organism: West Nile virus SPU116/89): 96 nM

Sequence: FIFLKKNEL
Kd (HLA-C*12:03; source organism: Variola virus): 1440 nM
Kd (HLA-A*02:01 [9]; source organism: Variola virus): 3020 nM
Kd (HLA-B*15:01 [10]): 4.77 µM
Kd (HLA-A*30:01 [11]): 43.9 nM
Kd (HLA-A*32:01): 12.8 µM
Kd (HLA-B*15:03): 18.5 µM
Kd (HLA-B*08:01 [12]): 96.6 nM

Sequence: FLDPATTTS
IC50 (HLA-A*01:01 [13]; [21]): ≥ 145 µM
IC50 (HLA-A*02:01 [14]; [21]): 1.78 µM

Sequence: FTEQAFYTR
IC50 (HLA-A*01:01 [13]; [22]): 26.3 µM
IC50 (HLA-A*11:01 [15]; [22]): 17.7 µM

Sequence: IINAHRIPK
Kd (HLA-A*69:01; [23]): ≥ 20 µM
Kd (HLA-B*58:01; [23]): ≥ 20 µM
Kd (HLA-B*07:02 [2]; [23]): ≥ 20 µM
Kd (HLA-B*18:01; [23]): ≥ 20 µM
Kd (HLA-B*27:05; [23]): ≥ 20 µM
Kd (HLA-B*15:01 [3]; [23]): ≥ 20 µM
Kd (HLA-A*03:01 [4]; [23]): 0.0825 µM
Kd (HLA-A*31:01; [23]): 0.0316 µM
Kd (HLA-A*01:01 [5]; [23]): ≥ 20 µM
Kd (HLA-B*44:02; [23]): ≥ 20 µM
Kd (HLA-A*11:01 [7]; [23]): 0.0267 µM
Kd (HLA-B*40:01; [23]): ≥ 20 µM
Kd (HLA-A*26:01; source organism: Cryptosporidium parvum Iowa II): ≥ 20000 nM
Kd (HLA-A*24:02; [23]): ≥ 20 µM

IC50 (HLA-A*02:01 [1]; source organism: Homo sapiens): 10 nM
Sequence: LLDVPTAAV

Sequence: LLGLWGTAAL
IC50 (HLA-A*02:01 [1]; source organism: Trypanosoma cruzi): 499 nM
Kd (HLA-A*02:06): 1260 nM
Kd (HLA-A*02:02): 1.93 nM
Kd (HLA-A*02:03): 7.21 nM
Kd (HLA-A*68:02): 8.19 µM

Sequence: LLQLNETIY
IC50 (HLA-B*15:01 [16]; [21]): 3.16 µM
IC50 (HLA-A*01:01 [13]; [21]): ≥ 88.9 µM
IC50 (HLA-A*02:01 [14]; [21]): ≥ 78.3 µM

Sequence: LSLTKLFSY
IC50 (HLA-B*15:01 [16]; source organism: Variola virus): 15.5 µM
IC50 (HLA-A*03:01 [17]): 18.9 µM
IC50 (HLA-A*01:01 [13]; source organism: Variola virus): 3.71 µM
IC50 (HLA-A*02:01 [14]; source organism: Variola virus): ≥ 103 µM
IC50 (HLA-A*11:01 [15]; source organism: Variola virus): 4.13 µM

Sequence: MPMYAIHKV
Kd (HLA-B*07:02 [18]): 26.7 nM
Kd (HLA-B*51:01): 1140 nM
Kd (HLA-B*08:01 [19]): 1870 nM

Sequence: NLIYRNLHL
IC50 (HLA-A*02:01 [1]; source organism: Rhinovirus A): 200 nM

Sequence: QMRDVLGTF
Kd (HLA-B*58:01; [24]): ≥ 20 µM
Kd (HLA-B*07:02 [2]; [25]): 0.381 µM
Kd (HLA-B*27:05; [24]): ≥ 20 µM
Kd (HLA-B*15:01 [3]; [25]): 0.066 µM
Kd (HLA-A*03:01 [4]; [24]): ≥ 20 µM
Kd (HLA-A*31:01; [24]): ≥ 20 µM
Kd (HLA-A*01:01 [5]; [24]): ≥ 20 µM
Kd (HLA-B*44:02; [24]): ≥ 20 µM
Kd (HLA-A*02:01 [6]; [24]): ≥ 20 µM
Kd (HLA-A*11:01 [7]; [24]): ≥ 20 µM
Kd (HLA-B*40:01; [24]): ≥ 20 µM
Kd (HLA-A*26:01; source organism: Influenza A virus (A/Hong Kong/507/97(H5N1))): 135 nM
Kd (HLA-A*24:02; [24]): ≥ 20 µM

Sequence: YIIPCILIL
Kd (HLA-C*12:03; [26]): 327 nM
Kd (HLA-C*15:02): ≥ 20 µM
Kd (HLA-C*03:03): 229 nM
Kd (HLA-A*02:11): 240 nM
Kd (HLA-A*02:01 [9]; [26]): 59.4 nM

IC50 (HLA-A*02:01 [1]; source organism: Homo sapiens): 83.5 nM
Sequence: YLDSGIHSGA
